The source of these data is article PMC5818060 (Journal of Cell Science, 2018).

Numbering of substitutions follows the chain as printed. Names may count otherwise.

The subject of series [1] is DDX3X-stimulated CK1ε (CK1εΔC). The series is described as follows: In vitro radioactive kinase assay, DDX3X-stimulated CK1ε activity. The note with it: recombinant DDX3X, CK1 peptide substrate, radioactive; n=3. The format is biochemical, human. The procedure:
(§1) Kinase assays were carried out essentially as described ([Cruciat et al., 2013]). For kinase assays, full-length DDX3X protein was expressed and purified from HEK293T cells as described for the ATPase assay. Deletion constructs were purified from E. coli. The eluted proteins were visualized using Coomassie Blue and the intensity of the protein bands was measured using ImageJ. The amounts used for kinase assays were estimated based on this staining. Where indicated, dsRNA was premixed with proteins at room temperature (RT) for 15 min before subjecting samples to radioactive kinase assays. The CK1 substrate peptide […] for the kinase assay and samples was analyzed using p81 phosphocellulose (Biomol) as described ([Zhai et al., 1992]). 0.3 µM CK1δ/ε-derived and control peptides were used ([Schacherl et al., 2015]). For mass spectrometric analyses DDX3X helicase core (His-DDX3X^168-582) as well as the C-terminal helicase domain (His-DDX3X^414-582) were in vitro phosphorylated by CK1ε. Also, reactions without addition of kinase were performed and analyzed in order to correct for false-positive results. Mass spectrometry data acquisition and analysis of trypsin-digested samples were performed at the Core Unit Mass Spectrometry and Proteomics (Ulm University) essentially as described in [Meng et al. (2016)].

The next series deals with CK1ε. The series is described as follows: Mass spectrometric detection of DDX3X phosphorylation by CK1ε in vitro. The format is biochemical, human. To be noted: phosphorylated by CK1ε in vitro; tryptic digestion, MS. Also noted: key to Probability of phosphorylation, T469 (symbol) / Probability of phosphorylation, S470 (symbol) / Probability of phosphorylation, S429 (symbol): –: no phosphorylation detected. The protocol:
as §1

Series [2] has as its system endogenous CK1 / CK1 sensor in HEK293T cells. Kind of series: CK1 FRET biosensor, microplate reader FRET/CFP ratio. The format is cell-based, human. The note with it: HEK293T, n=3. The procedure: HEK293T cells were seeded at a density of 20,000 cells/well on 96-well black microplates (PS, μClear, clear bottom, chimney well, Greiner No. 655090). Transfection was performed as described above. Unless indicated otherwise, the respective cell populations were transfected with 50-100 ng CK1 FRET biosensor, 100 ng regulator (i.e. N-Flag DDX3X) and 1-10 ng kinase (i.e. N-Flag CK1ε). Either empty pCS2 N-Flag vector or luciferase were used to transfect the same amount of DNA in every well. Generally, the different samples were run in triplicate for each individual experiment. […]
Where applicable, the small-molecule CK1 inhibitor D4476 (BioVision) was added to the cells 2-4 h prior to the analysis. […] Analysis was performed 48-60 h after transfection on an Infinite M1000 PRO microplate reader (Tecan) by exciting CFP with a wavelength of 433 nm and measuring the resulting emission at 460-600 nm in 2 nm increments. Fluorometric spectra were background subtracted with spectra recorded from wells with non-transfected cells. Resulting FRET/CFP ratios were calculated by dividing the intensity values at the respective peaks (478 nm for CFP, 528 nm for YFP) and analyzed essentially as described ([Fritz et al., 2013]). […]

In series [3] the test system is Dvl phosphorylation in HEK293T cells. Kind of series: Dvl phosphorylation shift on Western blot. The series is classed as cell-based, human. The note with it: 50 or 100 ng Flag-DDX3X DNA. On the technique in general: In western blotting, separated proteins are transferred to a membrane and probed.
The subject of another series is DDX3X. The series is described as follows: ATPase assay of DDX3X. The format is biochemical, human. The note with it: full-length Flag-DDX3X, dsRNA 17-68 nM, 37°C, 40 min, 1 mM ATP; n=3. The protocol: For the ATPase assay, Flag-tagged DDX3X full-length constructs were expressed in HEK293T cells. After purifying and eluting DDX3X from the beads, an aliquot of the eluates was resolved by SDS-PAGE in order to monitor the different DDX3X levels via western blotting and ImageJ. Based on this comparison, similar amounts of full-length DDX3X protein were used. Approximately 100 ng Flag-DDX3X protein and 10 ng His-CK1ε were used in a 60 μl reaction mix (reaction buffer: 20 mM Tris-HCl, pH 7.4, 200 mM NaCl, 0.5 mM DTT, 1 mM MgCl2, 1 mM ATP) with dsRNA (17 nM, 34 nM, 68 nM); the reaction was carried out at 37°C for 40 min. To phosphorylate DDX3X, 500 ng His-CK1εΔC or His-CK1εΔC^K38R were added in kinase buffer before eluting the DDX3X protein from the Sepharose magnetic Flag beads (Sigma). Incubation was performed at 37°C for 30 min. Then, beads were washed with 50 mM Tris-HCl, pH 7.5 and 500 mM NaCl before elution with Flag peptide. Termination of the helicase reaction was done with 10 μl of 50% TCA solution added to each reaction followed by centrifugation at 3000 g for 5 min at 4°C. Reaction mix was mixed with coloring solution (35 mM ammonium molybdate, 10 mM zinc acetate, 10% ascorbic acid, pH 5) in a 96-well plate before analysis using a spectrometer (wavelength 700 nm).

B1: His-DDX3X^414-582: C-terminal helicase domain of DDX3X (aa 414–582), 6× histidine tag (protein)
chain: NITQKVVWVEESDKRSFLLDLLNATGKDSLTLVFVETKKGADSLEDFLYHEGYACTSIHGDRSQRDREEALHQFRSGKSPILVATAVAARGLDISNVKHVINFDLPSDIEEYVHRIGRTGRVGNLGLATSFFNERNINITKDLLDLLVEAKQEVPSWLENMAYEHHYKG
modifications: left off: His, end not stated, kept
notes: C-terminal helicase domain of DDX3X (aa 414–582), 6× histidine tag
On to B1, for which the “stimulation of CK1ε kinase activity in vitro” value in series [1] is reported as “sufficient to stimulate CK1ε∆C activity”. Moreover, in the series with CK1ε, the “Probability of phosphorylation, S429 (symbol)” value is recorded as “–”; the “Probability of phosphorylation, S470” value came out at 100%; the “Probability of phosphorylation, S543” value is reported as 92.7%; the “Probability of phosphorylation, T469” value turned out to be 100%.

B2: DDX3X: human DEAD box RNA helicase DDX3X (UniProt O00571) (protein)
chain: MSHVAVENALGLDQQFAGLDLNSSDNQSGGSTASKGRYIPPHLRNREATKGFYDKDSSGWSSSKDKDAYSSFGSRSDSRGKSSFFSDRGSGSRGRFDDRGRSDYDGIGSRGDRSGFGKFERGGNSRWCDKSDEDDWSKPLPPSERLEQELFSGGNTGINFEKYDDIPVEATGNNCPPHIESFSDVEMGEIIMGNIELTRYTRPTPVQKHAIPIIKEKRDLMACAQTGSGKTAAFLLPILSQIYSDGPGEALRAMKENGRYGRRKQYPISLVLAPTRELAVQIYEEARKFSYRSRVRPCVVYGGADIGQQIRDLERGCHLLVATPGRLVDMMERGKIGLDFCKYLVLDEADRMLDMGFEPQIRRIVEQDTMPPKGVRHTMMFSATFPKEIQMLARDFLDEYIFLAVGRVGSTSENITQKVVWVEESDKRSFLLDLLNATGKDSLTLVFVETKKGADSLEDFLYHEGYACTSIHGDRSQRDREEALHQFRSGKSPILVATAVAARGLDISNVKHVINFDLPSDIEEYVHRIGRTGRVGNLGLATSFFNERNINITKDLLDLLVEAKQEVPSWLENMAYEHHYKGSSRGRSKSSRFSGGFGARDYRQSSGASSSSFSSSRASSSRSGGGGHGSSRGFGGGGYGGFYNSDGYGGNYNSQGVDWWGN
modifications: left off: Flag, N-terminal, kept
With B2, the “cooperation of DDX3X with co-expressed CK1 isoforms (FRET/CFP ratio)” value in series [2] (CK1 sensor with CK1 isoform) is “predominantly synergized with limiting amounts of CK1ε rather than with CK1δ and CK1α isoforms”. Also, in series [2] (DDX3X without added CK1), the “effect of co-expressed DDX3X on FRET/CFP ratio of CK1 sensor” value was “not sufficient to significantly enhance endogenous CK1 activity”. Besides, the “stimulation of Dvl phosphorylation” value in series [3] was “the wild-type protein alone could not”.

B3: CK1εΔC: CK1ε lacking the C-terminal 112 amino acids, constitutively active (protein, UniProt P49674 1-304, looked up, fragment)
chain: MELRVGNKYRLGRKIGSGSFGDIYLGANIASGEEVAIKLECVKTKHPQLHIESKFYKMMQGGVGIPSIKWCGAEGDYNVMVMELLGPSLEDLFNFCSRKFSLKTVLLLADQMISRIEYIHSKNFIHRDVKPDNFLMGLGKKGNLVYIIDFGLAKKYRDARTHQHIPYRENKNLTGTARYASINTHLGIEQSRRDDLESLGYVLMYFNLGSLPWQGLKAATKRQKYERISEKKMSTPIEVLCKGYPSEFSTYLNFCRSLRFDDKPDYSYLRQLFRNLFHRQGFSYDYVFDWNMLKFGAARNPEDV
modifications: His tag
For the molecule B3, the “effect of CK1ε protein on RNA-stimulated ATPase activity of DDX3X” value in the series with DDX3X is “much less stimulated by dsRNA”.

B4: CK1εΔC^K38R: kinase-dead mutant of CK1εΔC (protein, UniProt P49674 1-416, looked up, variant K38R del305-416)
Casein kinase I isoform …: B3 chain with K38R
modifications: His tag
As for B4, in the series with DDX3X, the “effect of CK1ε protein on RNA-stimulated ATPase activity of DDX3X” value is reported as “still allowed dsRNA stimulation of the ATPase activity”.

B5: His-DDX3X^168-582: DDX3X helicase core (aa 168–582), 6× histidine tag (protein, UniProt O00571 168-582, looked up, fragment)
chain: VEATGNNCPPHIESFSDVEMGEIIMGNIELTRYTRPTPVQKHAIPIIKEKRDLMACAQTGSGKTAAFLLPILSQIYSDGPGEALRAMKENGRYGRRKQYPISLVLAPTRELAVQIYEEARKFSYRSRVRPCVVYGGADIGQQIRDLERGCHLLVATPGRLVDMMERGKIGLDFCKYLVLDEADRMLDMGFEPQIRRIVEQDTMPPKGVRHTMMFSATFPKEIQMLARDFLDEYIFLAVGRVGSTSENITQKVVWVEESDKRSFLLDLLNATGKDSLTLVFVETKKGADSLEDFLYHEGYACTSIHGDRSQRDREEALHQFRSGKSPILVATAVAARGLDISNVKHVINFDLPSDIEEYVHRIGRTGRVGNLGLATSFFNERNINITKDLLDLLVEAKQEVPSWLENMAYEHHYKG
modifications: N-terminal 6xHis tag
notes: DDX3X helicase core (aa 168–582), 6× histidine tag
For the molecule B5, in the series with CK1ε, the “Probability of phosphorylation, S429” value is 100%; the “Probability of phosphorylation, S470 (symbol)” value is reported as “–”; the “Probability of phosphorylation, S543” value is 88.7%; the “Probability of phosphorylation, T469 (symbol)” value is “–”.
